# According to the supplement of paper PMC9112550, “Optimization of the antimicrobial peptide Bac7 by deep mutational scanning” (BMC Biology, 2022):
# System: Escherichia coli TOP10
# Assay: shrunken log2 fold change of peptide-encoding DNA abundance (4.5 h post-induction vs induction); higher = less antimicrobial activity (less host growth inhibition)
# Details: time post-induction: 4.5 h; library: site-saturation at positions 5, 18, 19, 20
# 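Further: peptides expressed intracellularly from a pBAD plasmid library in pooled LB shake-flask culture, induced with 0.3% L-arabinose, DNA abundance read by NGS, three biological replicates, DESeq2 with apeglm shrinkage.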
row,Sequence,shrunken log2 fold change
1,RRIRYRPPRLPRPRPRPDEYPRP,-0.0128
2,RRIRDRPPRLPRPRPRPAQWPRP,0.395
3,RRIRKRPPRLPRPRPRPCVYPRP,0.109
4,RRIRIRPPRLPRPRPRPMRWPRP,-0.0141
5,RRIRGRPPRLPRPRPRPPQEPRP,0.352
6,RRIRFRPPRLPRPRPRPNLQPRP,-0.264
7,RRIRPRPPRLPRPRPRPQMFPRP,0.161
8,RRIRMRPPRLPRPRPRPRQHPRP,0.47
9,RRIRGRPPRLPRPRPRPCRAPRP,0.495
10,RRIRHRPPRLPRPRPRPMIHPRP,-0.382
11,RRIRNRPPRLPRPRPRPHVHPRP,-0.109
12,RRIRMRPPRLPRPRPRPEPHPRP,1.43
13,RRIRWRPPRLPRPRPRPITCPRP,-0.0627
14,RRIRQRPPRLPRPRPRPDGVPRP,-0.119
15,RRIRERPPRLPRPRPRPEWSPRP,0.0433
16,RRIRWRPPRLPRPRPRPEYHPRP,0.0167
17,RRIRLRPPRLPRPRPRPHSRPRP,-0.0563
18,RRIRWRPPRLPRPRPRPRPSPRP,0.766
19,RRIRIRPPRLPRPRPRPTEIPRP,-0.305
20,RRIRTRPPRLPRPRPRPQRWPRP,0.137
21,RRIRKRPPRLPRPRPRPHEWPRP,0.3
22,RRIRCRPPRLPRPRPRPEQYPRP,-0.322
23,RRIRPRPPRLPRPRPRPLGGPRP,1.53
24,RRIRLRPPRLPRPRPRPVDSPRP,0.0702
25,RRIRQRPPRLPRPRPRPHAVPRP,-0.0835

row,Sequence,shrunken log2 fold change
1,RRIRNRPPRLPRPRPRPAFEPRP,0.0155
2,RRIRKRPPRLPRPRPRPYNEPRP,-0.254
3,RRIRWRPPRLPRPRPRPHDQPRP,0.36
4,RRIRWRPPRLPRPRPRPSKPPRP,-0.0185
5,RRIRCRPPRLPRPRPRPKAAPRP,0.115
6,RRIRNRPPRLPRPRPRPRSNPRP,-0.0866
7,RRIRIRPPRLPRPRPRPWCQPRP,-0.339
8,RRIRKRPPRLPRPRPRPSFAPRP,0.337
9,RRIRVRPPRLPRPRPRPNPQPRP,0.000771
10,RRIRDRPPRLPRPRPRPWCVPRP,0.083
11,RRIRDRPPRLPRPRPRPFIEPRP,0.0849
12,RRIRERPPRLPRPRPRPYLHPRP,-0.96
13,RRIRWRPPRLPRPRPRPLYKPRP,-0.849
14,RRIRIRPPRLPRPRPRPIHMPRP,-0.379
15,RRIRLRPPRLPRPRPRPMVAPRP,-0.147
16,RRIRLRPPRLPRPRPRPNLTPRP,-0.299
17,RRIRNRPPRLPRPRPRPPPMPRP,0.678
18,RRIRVRPPRLPRPRPRPYEHPRP,-0.118
19,RRIRARPPRLPRPRPRPYYIPRP,-0.409
20,RRIRFRPPRLPRPRPRPHFFPRP,-0.053
21,RRIRCRPPRLPRPRPRPKQYPRP,-0.629
22,RRIRIRPPRLPRPRPRPTDFPRP,-0.109
23,RRIRYRPPRLPRPRPRPGYWPRP,-0.154
24,RRIRSRPPRLPRPRPRPPWIPRP,-0.0981
25,RRIRERPPRLPRPRPRPEGEPRP,0.332

row,Sequence,shrunken log2 fold change
1,RRIRYRPPRLPRPRPRPITGPRP,0.0176
2,RRIRHRPPRLPRPRPRPAHKPRP,-0.0386
3,RRIRIRPPRLPRPRPRPVLEPRP,0.0298
4,RRIRNRPPRLPRPRPRPQRFPRP,-0.155
5,RRIRNRPPRLPRPRPRPQQRPRP,-0.0535
6,RRIRERPPRLPRPRPRPKAHPRP,0.107
7,RRIRCRPPRLPRPRPRPEFHPRP,-0.664
8,RRIRTRPPRLPRPRPRPAQPPRP,0.00354
9,RRIRYRPPRLPRPRPRPATDPRP,-0.327
10,RRIRMRPPRLPRPRPRPGTWPRP,0.043
11,RRIRIRPPRLPRPRPRPCMSPRP,-0.347
12,RRIRYRPPRLPRPRPRPGWPPRP,0.0827
13,RRIRFRPPRLPRPRPRPNSPPRP,-0.462
14,RRIRKRPPRLPRPRPRPGTPPRP,0.824
15,RRIRPRPPRLPRPRPRPWSQPRP,0.0452
16,RRIRARPPRLPRPRPRPHMEPRP,0.157
17,RRIRIRPPRLPRPRPRPTIQPRP,-0.334
18,RRIRLRPPRLPRPRPRPCMMPRP,-0.225
19,RRIRSRPPRLPRPRPRPICNPRP,-0.0128
20,RRIRGRPPRLPRPRPRPITTPRP,0.407
21,RRIRTRPPRLPRPRPRPGSVPRP,-0.179
22,RRIRIRPPRLPRPRPRPLDMPRP,-0.285
23,RRIRIRPPRLPRPRPRPDSLPRP,-0.163
24,RRIRMRPPRLPRPRPRPLAKPRP,0.791
25,RRIRIRPPRLPRPRPRPFTQPRP,-0.71

row,Sequence,shrunken log2 fold change
1,RRIRERPPRLPRPRPRPYWRPRP,-0.0166
2,RRIRERPPRLPRPRPRPAIVPRP,0.00833
3,RRIRDRPPRLPRPRPRPHKKPRP,-0.00887
4,RRIRFRPPRLPRPRPRPKCRPRP,-0.0272
5,RRIRPRPPRLPRPRPRPVYFPRP,-0.671
6,RRIRNRPPRLPRPRPRPDQWPRP,0.0039
7,RRIRRRPPRLPRPRPRPVGFPRP,0.362
8,RRIRDRPPRLPRPRPRPSQGPRP,-0.0558
9,RRIRKRPPRLPRPRPRPDAGPRP,-0.034
10,RRIRLRPPRLPRPRPRPSFAPRP,-0.067
11,RRIRWRPPRLPRPRPRPTYEPRP,0.207
12,RRIRKRPPRLPRPRPRPMNRPRP,-0.029
13,RRIRTRPPRLPRPRPRPVGAPRP,0.327
14,RRIRFRPPRLPRPRPRPDYDPRP,-0.0802
15,RRIRVRPPRLPRPRPRPCSTPRP,-0.127
16,RRIRRRPPRLPRPRPRPERYPRP,0.00129
17,RRIRKRPPRLPRPRPRPNYKPRP,-0.507
18,RRIRDRPPRLPRPRPRPIENPRP,-0.144
19,RRIRHRPPRLPRPRPRPGFMPRP,0.0294
20,RRIRERPPRLPRPRPRPVHMPRP,-0.0419
21,RRIRYRPPRLPRPRPRPNADPRP,-0.0823
22,RRIRCRPPRLPRPRPRPIPWPRP,-0.146
23,RRIRQRPPRLPRPRPRPISEPRP,0.0446
24,RRIRSRPPRLPRPRPRPLQYPRP,-0.221
25,RRIRQRPPRLPRPRPRPNQFPRP,0.0334

row,Sequence,shrunken log2 fold change
1,RRIRCRPPRLPRPRPRPYLEPRP,-0.208
2,RRIRWRPPRLPRPRPRPTRLPRP,0.411
3,RRIRNRPPRLPRPRPRPQCKPRP,-0.0743
4,RRIRVRPPRLPRPRPRPHNTPRP,-0.353
5,RRIRIRPPRLPRPRPRPPHPPRP,0.154
6,RRIRRRPPRLPRPRPRPLYAPRP,0.0633
7,RRIRVRPPRLPRPRPRPWAQPRP,-0.365
8,RRIRNRPPRLPRPRPRPKFSPRP,-0.0617
9,RRIRMRPPRLPRPRPRPMTYPRP,0.157
10,RRIRQRPPRLPRPRPRPNAMPRP,-0.226
11,RRIRFRPPRLPRPRPRPAAKPRP,-0.118
12,RRIRHRPPRLPRPRPRPADPPRP,0.0438
13,RRIRCRPPRLPRPRPRPCNLPRP,-0.0646
14,RRIRTRPPRLPRPRPRPFLPPRP,-0.279
15,RRIRIRPPRLPRPRPRPNMKPRP,-0.625
16,RRIRQRPPRLPRPRPRPRCTPRP,-0.172
17,RRIRCRPPRLPRPRPRPPALPRP,0.415
18,RRIRQRPPRLPRPRPRPNILPRP,-0.233
19,RRIRHRPPRLPRPRPRPARAPRP,0.345
20,RRIRSRPPRLPRPRPRPFPWPRP,-0.0834
21,RRIRARPPRLPRPRPRPWETPRP,4.22
22,RRIRARPPRLPRPRPRPKYVPRP,-0.145
23,RRIRHRPPRLPRPRPRPKLFPRP,0.0628
24,RRIRIRPPRLPRPRPRPSTQPRP,-0.0353
25,RRIRFRPPRLPRPRPRPMWEPRP,-0.232

row,Sequence,shrunken log2 fold change
1,RRIRYRPPRLPRPRPRPREFPRP,0.163
2,RRIRCRPPRLPRPRPRPMNYPRP,-0.226
3,RRIRGRPPRLPRPRPRPYLCPRP,0.0395
4,RRIRLRPPRLPRPRPRPTIKPRP,-0.395
5,RRIRERPPRLPRPRPRPDMQPRP,-0.184
6,RRIRGRPPRLPRPRPRPFMYPRP,0.345
7,RRIRRRPPRLPRPRPRPGHDPRP,0.0801
8,RRIRVRPPRLPRPRPRPPALPRP,0.189
9,RRIRWRPPRLPRPRPRPSRIPRP,-0.338
10,RRIRMRPPRLPRPRPRPVCTPRP,0.479
11,RRIRARPPRLPRPRPRPGEMPRP,0.228
12,RRIRKRPPRLPRPRPRPAIRPRP,-0.29
13,RRIRYRPPRLPRPRPRPGANPRP,-0.0888
14,RRIRQRPPRLPRPRPRPRSCPRP,0.268
15,RRIRMRPPRLPRPRPRPGITPRP,0.133
16,RRIRKRPPRLPRPRPRPIHGPRP,-0.122
17,RRIRHRPPRLPRPRPRPSGPPRP,0.082
18,RRIRPRPPRLPRPRPRPSACPRP,0.0137
19,RRIRMRPPRLPRPRPRPSDSPRP,0.0495
20,RRIRVRPPRLPRPRPRPFQQPRP,-0.014
21,RRIRFRPPRLPRPRPRPTFPPRP,-0.0193
22,RRIRYRPPRLPRPRPRPTHKPRP,-0.329
23,RRIRARPPRLPRPRPRPNDDPRP,0.54
24,RRIRARPPRLPRPRPRPYGCPRP,-0.55
25,RRIRERPPRLPRPRPRPGFAPRP,0.604
